# Reference: US11332546B2, “Protease inhibitory antibodies and methods of use thereof” (The Regents of The University of California, priority 2019, dated 2022)
# Substitutions are numbered along the chain they refer to.
# B1: Fab 1A5: anti-MMP-14 antibody clone; VL SEQ ID NO:92, VH SEQ ID NO:9, CDR-H3 SEQ ID NO:12 (antibody, V domains shown)
# VH: EVQLVESGGGLVQPGGSLRLSCAASGFNLYYYYMHWVRQAPGKGLEWVAYIYPYSGSTYYADSVKGRFTISADTSKNTAYLQMNSLRAEDTAVYYCARLDFLMRDIYYDLGGGALGWLIKYAMDYWGQGTLVTVSSAS
# VL: DIQMTQSPSSLSASVGDRVTITCRASQSVSSAVAWYQQKPGKAPKLLIYSASSLYSGVPSRFSGSRSGTDFTLTISSLQPEDFATYYCQQYSGPYPITFGQGTKVEIKR
# B2: Fab B2B5: anti-BACE-1 antibody clone; VL SEQ ID NO:100, VH SEQ ID NO:41, CDR-H3 SEQ ID NO:43 (antibody, V domains shown)
# VH: EVQLVESGGGLVQPGGSLRLSCAASGFNIYYSYMHWVRQAPGKGLEWVASIYPYYGSTYYADSVKGRFTISADTSKNTAYLQMNSLRAEDTAVYYCARWHGYPPGYSYYSSFSSSGFDYWGQGTLVTVSSAS
# VL: B1 VL with L73P, Y91S, S92Y, G93F, P94S
# B3: Fab B2B2: anti-BACE-1 antibody clone; VL SEQ ID NO:44, VH SEQ ID NO:46, CDR-H3 SEQ ID NO:49 (antibody, V domains shown)
# VH: EVQLVESGGGLVQPGGSLRLSCAASGFNISSYYMHWVRQAPGKGLEWVASIYSSYGYTYYADSVKGRFTISADTSKNTAYLQMNSLRAEDTAVYYCARYWGYYAWFGSHPWAYGAFDYWGQGTLVTVSSAS
# VL: DIQMTQSPSSLSASVGDRVTITCRASQSVSSAVAWYQQKPGKAPKLLIYSASSLYSGVPSRFSGSRSGTDFTLTISSLQPEDFATYYCQQYGYYLITFGQGTKVEIKR
# B4: Fab B2B9: anti-BACE-1 antibody clone; VL SEQ ID NO:96, VH SEQ ID NO:53, CDR-H3 SEQ ID NO:56 (antibody, V domains shown)
# VH: EVQLVESGGGLVQPGGSLRLSCAASGFNISYSSMHWVRQAPGKGLEWVASIYPSYSYTSYADSVKGRFTISADTSKNTAYLQMNSLRAEDTAVYYCARSSSSYYYGMDYWGQGTLVTVSSAS
# VL: B3 VL with Y91S, G92S, Y94S
# B5: Fab B2B3: anti-BACE-1 antibody clone; VL SEQ ID NO:102, VH SEQ ID NO:50, CDR-H3 SEQ ID NO:52 (antibody, V domains shown)
# VH: EVQLVESGGGLVQPGGSLRLSCAASGFNISYSSIHWVRQAPGKGLEWVAYISSYSSSTYYADSVKGRFTISADTSKNTAYLQMNSLRAEDTAVYYCARSASGIDYWGQGTLVTVSSAS
# VL: B3 VL with Y91S, Y94A, L95P, I96F
# B6: Fab B3B12: anti-BACE-1 antibody clone; VL SEQ ID NO:25, VH SEQ ID NO:29, CDR-H3 SEQ ID NO:32 (antibody, V domains shown)
# VH: EVQLVESGGGLVQPGGSLRLSCAASGFNIPYSSMHWVRQAPGKGLEWVASISSYSSSTSYADSVKGRFTISADTSKNTAYLQMNSLRAEDTAVYYCARYICGHRWRDFDMWRARTGVNYAMDYWGQGTLVTVSSAS
# VL: DIQMTQSPSSLSASVGDRVTITCRASQSVGTYLNWYQQKPGKAPKLLIYATSNLRSGVPSRFSGSGSGTDFTLTISSLQPEDFATYYCQQSYSIPRFTFGPGTKLEIKR
# B7: IgG B3B12: anti-BACE1 inhibitory Fab B3B12 converted into IgG format (antibody, V domains shown)
# VH: B6 VH
# VL: B6 VL
# B8: Fab B1A4: anti-BACE-1 antibody clone; VL SEQ ID NO:33, VH SEQ ID NO:37, CDR-H3 SEQ ID NO:40 (antibody, V domains shown)
# VH: EVQLVESGGGLVQPGGSLRLSCAASGFNISYSSIHWVRQAPGKGLEWVAYISPSSSYTSYADSVKGRFTISADTSKNTAYLQMNSLRAEDTAVYYCARHYYVSVGSGIDYWGQGTLVTVSSAS
# VL: DIQMTQSPSSLSASVGDRVTITCRASQSVSSAVAWYQQKPGKAPKLLIYSASSLYSGVPSRFSGSRSGTDFTPTISSLQPEDFATYYCQQASASPYALITFGQGTKVEIKR
# B9: Fab 2B12: anti-MMP-14 antibody clone; VL SEQ ID NO:90, VH SEQ ID NO:5, CDR-H3 SEQ ID NO:8 (antibody, V domains shown)
# VH: EVQLVESGGGLVQPGGSLRLSCAASGFNIYYSSMHWVRQAPGKGLEWVAYIYSSSSYTYYADSVKGRFTISADTSKNTAYLQMNSLRAEDTAVYYCARDCCSCVFSQSAGITLACVYVMDYWGQGTLVTVSSAS
# VL: DIQMTQSPSSLSASVGDRVTITCRASQSVSSAVAWYQQKPGKAPKLLIYSASSLYSGVPSRFSGSRSGTDFTLTISSLQPEDFATYYCQQWGPHYAPITFGQGTKVEIKR
# B10: Fab B1B3: anti-BACE-1 antibody clone; VL SEQ ID NO:104, VH SEQ ID NO:61, CDR-H3 SEQ ID NO:64 (antibody, V domains shown)
# VH: EVQLVESGGGLVQPGGSLRLSCAASGFNISYYSMHWVRQAPGKGLEWVASISPYYGSTYYADSVKGRFTISADTSKNTAYLQMNSLRAEDTAVYYCARERSSCPVGWRDSRFGADGYGLEYWGQGTLVTVSSAS
# VL: B9 VL with W91S, P93H, H94Y, Y95H, A96S, P97L
# Tests used:
# [1] = biological target: T1, cdMMP-12 wt (Homo sapiens, UniProt P39900); assay: Fibronectin proteolysis inhibition, cdMMP-12 wt (western blot); format: biochemical; conditions: 2 μM GM6001; 350 nM wt cdMMP-12, 200 nM fibronectin, 37° C.
# T1 construct: hexahistidine (C); made in house; host or cells: E. coli BL21 (pET32b, cytoplasmic)
# Description: Inhibition tests with macromolecular substrates 10 μg/mL FITC-conjugated elastin (AnaSpec) was incubated with 7 nM cdMMP-12 D4/wt and 2-2000 nM purified Fab in 50 mM Tris-HCl, 150 mM NaCl, 5 mM CaCl2), 100 μM ZnCl2 pH 7.5. Generated fluorescent signals were measured at 12 h with λEx of 490 nm and λEm of 520 nm. […] The samples were separated on 5% non-reducing SDS-PAGE and analyzed by western blotting with anti-Fibronectin antibody (Abcam) and chemiluminescent substrate (Thermo Scientific). […] Assays without cdMMP-12s or Fabs were performed as controls.
# [2] = tested on: cdMMP-9; assay: FRET inhibition selectivity test, cdMMP-9 (Example 1); format: biochemical; conditions: Fab at 500 nM
# Description: (§1) For inhibition tests, 1 μM Fabs were 2-fold serially diluted into protease specific assay buffer and incubated with 1-10 nM proteases for 30 min at room temperature. […] Inhibition percentages at given concentrations were calculated by comparing the initial reaction rates in the presence or absence of inhibitor. IC50 was determined as the concentration that achieved 50% inhibition, and KI values were calculated using KI=IC50/(S/Km+1). Vmax and Km at various Fab concentrations were measured to determine the inhibition type. FRET inhibition assays were also used for selectivity tests of isolated Fabs with the relevant proteases.
# [3] = biological target: T2, BACE1 (Homo sapiens, UniProt P56817); assay: FRET peptide inhibition assay, BACE1 (M-2420); format: biochemical; conditions: BACE-1, FRET peptide; for Ki: Fab, read-out: Inhibition Potency KI; for Inhibition Potency KI (associated IgG, in parentheses): IgG format
# T2 construct: human β-secretase 1 (BACE1, residue 46-457); made in house; host or cells: HEK293F (secreted, protein A purified)
# Description: as §1
# [4] = biological target: T2, BACE1; assay: Binding kinetics by biolayer interferometry, Fabs/IgGs on BACE1; conditions: for Kd: Fab, read-out: Binding Affinity KD; for Binding Affinity KD (associated IgG, in parentheses): IgG format
# Description: Binding kinetics of produced antibodies towards associated protease targets were analyzed by using biolayer interferometry (ForteBio). For Fabs, biotinylated proteases were immobilized on streptavidin biosensors, and Fab binding to the sensors in absence of protease was monitored as backgrounds. For IgGs, protein A sensors were used and protease bindings without IgG were checked as backgrounds. kon and koff were determined for KD calculations. […] Fab in vitro stability was tested by incubating 1 μM Fab with 1 μM of the respective protease in the assay buffer for 12 hours and the samples were analyzed by SDS-PAGE.
# [5] = biological target: T3, BACE2 (Homo sapiens, UniProt Q9Y5Z0); assay: FRET inhibition selectivity test, BACE2; format: biochemical; conditions: IgG
# T3 sequence (Q9Y5Z0 63-518): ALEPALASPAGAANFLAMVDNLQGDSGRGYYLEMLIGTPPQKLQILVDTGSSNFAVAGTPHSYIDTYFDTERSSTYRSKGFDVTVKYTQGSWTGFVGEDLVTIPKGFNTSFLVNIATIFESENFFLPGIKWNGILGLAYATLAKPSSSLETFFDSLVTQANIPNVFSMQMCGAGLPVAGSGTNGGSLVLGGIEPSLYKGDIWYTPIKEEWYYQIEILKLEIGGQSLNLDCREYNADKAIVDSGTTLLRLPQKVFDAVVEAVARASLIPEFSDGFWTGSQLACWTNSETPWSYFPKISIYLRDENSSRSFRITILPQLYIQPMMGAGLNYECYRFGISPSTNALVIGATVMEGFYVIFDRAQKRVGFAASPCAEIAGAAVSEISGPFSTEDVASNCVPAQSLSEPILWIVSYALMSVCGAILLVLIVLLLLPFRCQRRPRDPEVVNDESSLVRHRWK
# Description: as §1
# T2 sequence (P56817 46-457): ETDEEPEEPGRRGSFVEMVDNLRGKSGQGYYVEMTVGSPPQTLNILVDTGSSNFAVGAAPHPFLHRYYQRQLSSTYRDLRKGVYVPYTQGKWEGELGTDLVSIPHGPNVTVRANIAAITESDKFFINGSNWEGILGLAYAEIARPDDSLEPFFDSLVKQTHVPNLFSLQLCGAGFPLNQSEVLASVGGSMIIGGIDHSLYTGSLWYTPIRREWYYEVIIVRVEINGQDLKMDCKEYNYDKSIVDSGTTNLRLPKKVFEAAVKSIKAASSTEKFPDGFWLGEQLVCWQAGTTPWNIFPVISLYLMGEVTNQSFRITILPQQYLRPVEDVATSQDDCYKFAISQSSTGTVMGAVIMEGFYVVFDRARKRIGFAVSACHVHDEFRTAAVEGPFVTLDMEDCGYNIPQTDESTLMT
# T1 sequence (P39900 106-263): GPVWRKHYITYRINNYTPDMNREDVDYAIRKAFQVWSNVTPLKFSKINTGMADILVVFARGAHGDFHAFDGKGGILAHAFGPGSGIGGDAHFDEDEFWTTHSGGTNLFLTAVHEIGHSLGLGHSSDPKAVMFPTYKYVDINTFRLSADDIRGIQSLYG
molecule,measurement,setting,value
"CNC(=O)[C@H](Cc1c[nH]c2ccccc12)NC(=O)[C@@H](CC(=O)NO)CC(C)C [GM6001, reference compound]",Fibronectin remaining after cdMMP-12 wt hydrolysis,[1],significant amounts of fibronectin remained
B1,Inhibition of cdMMP-9 (selectivity),[2],did not inhibit
B2,Ki,[3],77 nM
same,Kd,[4],130 nM
B3,Ki,[3],87 nM
same,Kd,[4],52 nM
B4,Ki,[3],120 nM
same,Kd,[4],110 nM
B5,Ki,[3],100 nM
same,Kd,[4],100 nM
B6,Ki,[3],23 nM
same,"Inhibition Potency KI (associated IgG, in parentheses)",[3],13 nM
same,Kd,[4],10 nM
same,"Binding Affinity KD (associated IgG, in parentheses)",[4],7 nM
B7,Inhibition of BACE2 (selectivity),[5],but not BACE2
same,"Inhibition Potency KI (associated IgG, in parentheses)",[3],13 nM
same,"Binding Affinity KD (associated IgG, in parentheses)",[4],7 nM
B8,Ki,[3],41 nM
same,"Inhibition Potency KI (associated IgG, in parentheses)",[3],35 nM
same,Kd,[4],21 nM
same,"Binding Affinity KD (associated IgG, in parentheses)",[4],16 nM
B9,Inhibition of cdMMP-9 (selectivity),[2],did not inhibit
B10,Ki,[3],210 nM
same,Kd,[4],31 nM
